Here are results for 5 molecules from US20190367631A1 (Regeneron, published 2019).

The target in assay [1] is T1, mouse MSR1 extracellular domain expressed with a N-terminal nonahistidine tag (His9-mMSR1); R&D Systems, Cat … (mouse, UniProt P30204 79-458).
T1 construct: extracellular domain; not shown: N-terminal nonahistidine tag
T1 sequence (looked up): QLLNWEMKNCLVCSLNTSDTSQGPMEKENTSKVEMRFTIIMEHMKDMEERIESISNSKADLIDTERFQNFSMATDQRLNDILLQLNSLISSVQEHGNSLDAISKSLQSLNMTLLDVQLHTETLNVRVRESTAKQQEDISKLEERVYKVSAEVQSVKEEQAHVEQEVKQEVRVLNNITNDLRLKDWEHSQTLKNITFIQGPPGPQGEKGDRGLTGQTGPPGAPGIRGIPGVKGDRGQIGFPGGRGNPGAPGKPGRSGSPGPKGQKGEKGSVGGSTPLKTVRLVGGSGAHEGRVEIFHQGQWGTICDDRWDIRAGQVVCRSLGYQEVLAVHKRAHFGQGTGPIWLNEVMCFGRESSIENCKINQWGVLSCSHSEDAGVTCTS
Description: BLI Octet, 25 C, antibody captured.

In assay [2] the target is T2, monkey MSR1 extracellular domain expressed with a N-terminal hexahistidine-myc-myc tag (HMM-mfMSR1) (monkey (Macaca fascicularis)).
T2 chain: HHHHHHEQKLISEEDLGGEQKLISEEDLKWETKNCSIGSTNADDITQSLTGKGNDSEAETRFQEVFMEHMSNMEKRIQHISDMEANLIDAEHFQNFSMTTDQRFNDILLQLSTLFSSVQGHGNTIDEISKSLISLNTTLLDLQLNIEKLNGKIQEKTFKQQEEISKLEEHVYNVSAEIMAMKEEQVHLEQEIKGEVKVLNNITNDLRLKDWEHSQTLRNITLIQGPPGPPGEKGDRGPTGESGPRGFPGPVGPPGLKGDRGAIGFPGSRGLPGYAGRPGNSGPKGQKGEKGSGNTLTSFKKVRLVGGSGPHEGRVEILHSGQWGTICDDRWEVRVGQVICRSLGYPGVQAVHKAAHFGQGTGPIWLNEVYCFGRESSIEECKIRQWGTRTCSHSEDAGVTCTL
Description: SPR Biacore, 25 C, antibody captured.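 Note: rates from 1:1 fit with mass transport limitation of real-time sensorgrams, HEPES-buffered saline with EDTA and Tween-20 at pH 7.4, KD and t½ derived from the kinetic rates.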
Description: (§1) Binding affinities and kinetic constants of human anti-MSR1 antibodies for different MSR1 reagents were determined by real-time surface plasmon resonance (Biacore 4000). All binding studies were performed in 10 mM HEPES, 150 mM NaCl, 3 mM EDTA, and 0.05% v/v Surfactant Tween-20, pH 7.4 (HBS-ET) running buffer at 25° C. and 37° C.
(§2) The association rate (kₐ) and dissociation rate (kd) were determined by fitting the real-time binding sensorgrams to a 1:1 binding model with mass transport limitation using Scrubber 2.0c curve-fitting software. Binding dissociation equilibrium constant (KD) and dissociative half-life (t½) were calculated from the kinetic rates as:

Assay [3] concerns the target T3, human MSR1 extracellular domain expressed with a N-terminal nonahistidine tag (His9-hMSR1); R&D Systems, Cat … (human, UniProt P21757 77-451).
T3 construct: extracellular domain; also called His-hMSR1; 9xHis-hMSR1; not shown: N-terminal nonahistidine tag
T3 sequence (looked up): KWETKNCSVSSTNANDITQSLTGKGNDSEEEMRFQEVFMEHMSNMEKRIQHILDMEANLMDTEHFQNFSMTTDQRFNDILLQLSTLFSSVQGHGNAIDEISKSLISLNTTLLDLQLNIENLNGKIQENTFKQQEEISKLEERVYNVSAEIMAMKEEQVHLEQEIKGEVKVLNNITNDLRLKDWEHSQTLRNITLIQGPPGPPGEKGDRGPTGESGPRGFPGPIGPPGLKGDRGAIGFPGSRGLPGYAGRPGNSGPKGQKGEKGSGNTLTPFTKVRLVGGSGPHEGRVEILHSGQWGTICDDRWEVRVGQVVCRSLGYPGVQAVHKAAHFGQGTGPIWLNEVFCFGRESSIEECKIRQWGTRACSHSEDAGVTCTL
In words: SPR Biacore, 37 C, antibody captured. On the technique in general: Surface plasmon resonance follows binding to a sensor surface in real time, without labels.

Assay [4] has as its target T2, monkey MSR1 extracellular domain …. In words: SPR Biacore, 37 C, antibody captured.
Description: as §1, §2
Assay [5] deals with T3, human MSR1 extracellular domain …. Description: SPR Biacore, 25 C, antibody captured; kd fixed, no dissociation seen.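 Note: rates from 1:1 fit with mass transport limitation of real-time sensorgrams, HEPES-buffered saline with EDTA and Tween-20 at pH 7.4, KD and t½ derived from the kinetic rates.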
Description: as §1, §2
Assay [6] shares this target. In words: BLI Octet, 25 C, antibody captured. A general note: Biolayer interferometry detects binding as a change in optical thickness at a sensor tip.
Description: (§3) Binding affinities and kinetic constants of human anti-MSR1 antibodies for different MSR1 reagents were determined using a real time, label-free bio-layer interferometry assay on an OCTET® HTX biosensor platform (Pall FortéBio Corp., Menlo Park, Calif.). The experiment was performed at 25° C. in 10 mM HEPES, 150 mM NaCl, 3 mM EDTA, 0.05% v/v Surfactant Tween-20, and 1 mg/mL BSA, pH7.4 (HBS-EBT) buffer with the plate shaking at the speed of 1000 rpm. […] The anti-MSR1 monoclonal antibodies were captured by dipping either anti-human Fc (AHC) or anti-mouse Fc (AMC) Octet biosensors in wells containing 5 pg/mL or 10 pg/mL of anti-MSR1 monoclonal antibody for 45-90 seconds. […] The binding of different MSR1 reagents to the captured anti-MSR1 monoclonal antibody was measured for 4 minutes and the dissociation of monoclonal antibody bound MSR1 reagent was monitored for 8-10 minutes in HBS-EBT buffer.
as §2
Assay [7] concerns the target T2, monkey MSR1 extracellular domain …. In words: BLI Octet, 25 C, antibody captured.
Description: as §3, §2
Assay [8] concerns the target T4, full length human MSR1 with a C-terminal Myc tag, on HEK293.Myc.hMSR1 cells (human, UniProt P21757 1-451).
T4 construct: whole, on cells; stably expressed on engineered HEK293 cells; not shown: C-terminal Myc tag
T4 sequence (looked up): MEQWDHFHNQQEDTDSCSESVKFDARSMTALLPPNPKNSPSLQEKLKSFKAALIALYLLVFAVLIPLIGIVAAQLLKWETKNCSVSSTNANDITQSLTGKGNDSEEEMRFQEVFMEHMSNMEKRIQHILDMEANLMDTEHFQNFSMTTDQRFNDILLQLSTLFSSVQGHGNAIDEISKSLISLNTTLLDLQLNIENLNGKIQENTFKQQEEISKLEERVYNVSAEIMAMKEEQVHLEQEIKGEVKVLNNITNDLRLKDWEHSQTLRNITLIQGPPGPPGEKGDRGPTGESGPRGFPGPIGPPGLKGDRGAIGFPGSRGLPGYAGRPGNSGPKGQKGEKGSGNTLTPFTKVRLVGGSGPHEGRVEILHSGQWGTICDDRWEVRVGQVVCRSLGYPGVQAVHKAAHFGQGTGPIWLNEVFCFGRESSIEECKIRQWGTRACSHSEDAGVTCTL
Description: ECL cell binding, HEK293.Myc.hMSR1 cells, 11 nM.

In assay [9] the target is T5, mouse MSR1 on RAW264.7 cells (mouse, UniProt P30204 1-458).
T5 construct: whole, on cells; also called MSR1 positive RAW264.7 cells
T5 sequence (looked up): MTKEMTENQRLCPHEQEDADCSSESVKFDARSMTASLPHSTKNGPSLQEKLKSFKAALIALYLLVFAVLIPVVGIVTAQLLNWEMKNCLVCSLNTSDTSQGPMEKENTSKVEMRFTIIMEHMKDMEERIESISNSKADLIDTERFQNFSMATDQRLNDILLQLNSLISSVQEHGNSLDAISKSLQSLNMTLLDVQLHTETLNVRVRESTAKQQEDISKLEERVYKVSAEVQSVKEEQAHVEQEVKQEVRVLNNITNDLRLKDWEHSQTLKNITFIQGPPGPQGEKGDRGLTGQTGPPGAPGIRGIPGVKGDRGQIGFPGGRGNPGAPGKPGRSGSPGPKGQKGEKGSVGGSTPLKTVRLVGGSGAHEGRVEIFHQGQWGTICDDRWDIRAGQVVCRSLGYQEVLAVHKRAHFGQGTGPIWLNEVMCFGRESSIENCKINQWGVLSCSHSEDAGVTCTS
In words: flow cytometry, RAW264.7 cells. For orientation: Flow cytometry measures light scatter and fluorescence of single cells or particles in a stream.
Description: To block binding to Fc receptors, RAW264.7 cells were incubated for 30 minutes at 4° C. with 500 pg/mL mouse IgG (Jackson ImmunoResearch, Cat #015-000-003) diluted in staining buffer, while B16F10.9 cells remained in staining buffer. […] The signal to noise (S/N) was determined by calculating the ratio of the anti-MSR1 antibodies or the control antibodies MFI to the unstained sample MFI (Table 11).

Assay [10] deals with T4, full length human MSR1 with a …. In words: cell-based or functional assay.
Assay [11] addresses T6, full length monkey MSR1 on HEK293.mfMSR1 cells (Macaca fascicularis, UniProt A0A2K5UWE2 1-451).
T6 construct: whole, on cells
T6 sequence: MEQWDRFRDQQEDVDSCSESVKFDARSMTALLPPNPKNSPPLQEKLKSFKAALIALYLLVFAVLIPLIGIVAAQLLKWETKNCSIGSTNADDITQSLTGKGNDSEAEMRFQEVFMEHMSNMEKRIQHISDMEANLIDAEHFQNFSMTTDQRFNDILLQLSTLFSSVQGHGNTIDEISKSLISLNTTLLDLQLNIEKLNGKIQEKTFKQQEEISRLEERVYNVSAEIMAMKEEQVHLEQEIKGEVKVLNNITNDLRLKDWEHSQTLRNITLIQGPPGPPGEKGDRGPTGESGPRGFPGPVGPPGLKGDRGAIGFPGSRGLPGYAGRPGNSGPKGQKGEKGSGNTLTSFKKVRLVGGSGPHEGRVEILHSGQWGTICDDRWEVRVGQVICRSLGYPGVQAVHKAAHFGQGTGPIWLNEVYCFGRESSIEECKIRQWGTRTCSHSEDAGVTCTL
Description: ECL cell binding, HEK293.mfMSR1 cells, 11 nM.
Description: All cells were washed once with 1×PBS with Ca²⁺/Mg²⁺ and counted with a Cellometer™ Auto T4 cell counter (Nexcelom Bioscience). Approximately 1.0×10⁴ cells were seeded separately onto 96-well carbon electrode plates [MULTI-ARRAY high bind plate, Meso Scale Diagnostics] and incubated for 1 hour at 37° C. Non-specific binding sites were then blocked by 2% BSA (w/v) in PBS with Ca²⁺/Mg²⁺ for 1 hour at room temperature. THP-1 cells were pre-incubated for 0.5 hours at room temperature in sample dilution buffer with: 1) 1 mg/mL Fc receptor block reagents to block Fc gamma receptors on THP-1 cell surface [whole molecule human IgG (Jackson Immunoresearch, Cat #009-000-003) for wells being tested with anti-MSR1-mFc antibodies or 2) whole molecule mlgG (Jackson Immunoresearch, Cat #015-000-003) for wells being tested with anti-MSR1-hFc antibodies. Antibody binding on HEK293.Myc.hMSR1, HEK293.mfMSR1 and HEK293 cells was tested without Fc receptor block reagents. […] Plates were then washed to remove unbound antibodies an AquaMax2000 plate washer with a cell washing head (MDS Analytical Technologies). […] Plates were washed and developed with Read Buffer (Meso Scale Diagnostics, Cat # R92TD-2) according to manufacturer's recommended procedure and luminescent signals were recorded with a SECTOR Imager 600 (Meso Scale Diagnostics). Luminescence intensity, measured in relative light units (RLU), was recorded to indicate the binding intensity of each antibody at the range of concentrations.

B1: H1H27754P-N297Q (antibody, V domains shown)
VH: EVQLVESGGGLVQPGGSLRLSCAASGFTFRTYAMTWVRQAPGKGLDWVSAITGDGGNTYYADSVKGRFTISRDNSKNTLYLQMNSLRAEDTAIYYCAKDQRFSFALYYFDYWGQGTLVTVSS
VL: DIQMTQSPSSVSASVGDRVTITCRASQGISSWLAWYQQKPGNAPKLLIYAAFSLQSGVPSRFSGSGSGTDFTLTISSLQPEDFATYYCQQANNFPWTFGQGTKVEIKR
notes: Human IgG1 Fc with N297Q point mutation
The Kd is the concentration at which binding is half-saturated. Broadly, the koff is a measure of how fast the partners let go of each other. As a reminder, the kon is the second-order rate constant of association. A word on the t½: it is the time needed for the level to fall by half in the phase considered. For B1, the binding result in assay [1] is given as “no binding (tested: 50 nM)”. In assay [2], this molecule yielded a Kd of 0.075 nM, a koff of 1.76e-05 s⁻¹, a kon of 235000 M⁻¹ s⁻¹ and a t½ of 10.9 h. In [3], the affinity, expressed as Kd, was 0.0381 nM; the koff was determined as 2.53e-05 s⁻¹; the kon was 663000 M⁻¹ s⁻¹; the t½ was 7.62 h. Besides, in assay [4], the equilibrium dissociation constant (Kd) was 0.0504 nM, the off-rate constant (koff) is 3.53e-05 s⁻¹, the kon was 701000 M⁻¹ s⁻¹ and the t½ was 5.45 h. For the same molecule, in assay [5], the Kd is at most 0.0344 nM, the off-rate (koff) was at most 1e-05 s⁻¹, the kon amounted to 290000 M⁻¹ s⁻¹ and the t½ was 19.2 h.

B2: H2aM25695N (antibody, V domains shown)
VH: QVQLQESGPGLVKPSETLSLTCTVTGGSISRNYWSWIRQPPGKGLEWIGYIYYSGSINYNPSLKSRVTISVDMSKNQFSLKLNSVTAADTAVYYCARDRWNWKYGMDVWGQGTTVIVSS
VL: EIVLTQSPGTLSLSPGERATLSCRASQTVRNSYLAWYHQKPGQAPRLLIYGASSRATGIPDRFSGSGSGTDFTLTISRLEPEDFAVYYCQQYGSSYWTFGQGTKMEIKR
notes: Human variable domains with mouse IgG2a Fc; tied by the numerical identifier
For B2, in [1], the binding result is “no binding (tested: 100 nM)”. In [6], this molecule gave a Kd of 1.46 nM, a koff of 0.000527 s⁻¹, a kon of 360000 M⁻¹ s⁻¹ and a t½ of 0.367 h. Besides, in assay [7], binding was put at a Kd of 1.83 nM, the koff came to 0.000571 s⁻¹, the kon was found to be 312000 M⁻¹ s⁻¹ and the t½ stood at 0.333 h.

B3: H2aM21228N (antibody, V domains shown)
VH: VQLVESGGGLVQPGGSLRLSCAASGFTFSDHYMDWVRQAPGKGLEWVGRTRNKANSHTTEYAASVSGRFTISRDDSKNSLYLQMNSLKTEDTAVYYCTRAGIIGTLFDYWGQGTLVTVSS
VL: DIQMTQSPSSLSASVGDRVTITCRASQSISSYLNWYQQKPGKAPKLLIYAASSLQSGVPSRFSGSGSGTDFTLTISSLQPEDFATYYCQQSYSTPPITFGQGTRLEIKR
notes: as for B2
Take B3: the binding result in assay [1] is on record as “no binding (tested: 100 nM)”. In assay [6], this molecule yielded a Kd of 0.954 nM, a koff of 0.000116 s⁻¹, a kon of 122000 M⁻¹ s⁻¹ and a t½ of 1.67 h. In [7], this molecule returned a Kd of 1.45 nM, a koff of 0.000146 s⁻¹, a kon of 100000 M⁻¹ s⁻¹ and a t½ of 1.32 h.

B4: H1H27734P-N297Q (antibody, human IgG1, V domains shown)
VH: EVQLVESRGGLVQPGGSLRLSCAASGFTFSSYAMSWVRQAPGKGLEWVSAISGSGGSTFYADSVKGRFTISRDNSKNTVYLQMNSLRAEDTAVYYCAKALVLRFLEWLGDYWGQGTLVTVSS
VL: DIQMTQSPSTLSASVGDRVTITCRASQSISSWLAWFQQKPGKAPKLLIYKASSLESGVPSRFSGSGSGTEFTLTISSLQPDDFATYYCQQYKSYWTFGQGTKVEIKR
notes: human IgG1 Fc with N297Q
For the molecule B4, the “ratio of binding signal (RLU) to isotype control” value in assay [8] was found to be 40 fold. In assay [9], the MFI was 4780 MFI and the “S/N (MFI over unstained MFI)” value was determined as 1. In assay [10], the “% Inhibition of Dil-Oxidized LDL uptake” value came out at 22% and the “IC50 of Dil-Oxidized LDL uptake inhibition” value came out at 5.5 nM. Further, the “ratio of binding signal (RLU) to isotype control” value in [11] stood at 28 fold.

B5: H1H27732P-N297Q (antibody, V domains shown)
VH: QLQLQESGPGLVKPSETLSLTCTVSGGSISSSTYYWGWIRQPPGKGLEWIGSFYYSGSTYYNPSLKSRVTISVGTSKNQFSLKLSSVTAADTAVYFCARGGLLGRPFVIWGQGTMVTVSS
VL: DIQMTQSPSSLSASVGDRVTITCRASQGIRNDLGWYQQKPGKAPKRLIYAASSLQSGVPSRFSGSGSGTEFTLTISSLQPEDFATYYCLQHNSYPLTFGGGTKVEIKR
notes: as for B1
With B5, the binding result in assay [1] is listed as “no binding (tested: 50 nM)”. Besides, the Kd in [2] is 0.248 nM; in assay [3], 0.111 nM; in assay [4], 0.317 nM; in [5] it was at most 0.0801 nM. Also, the t½ was determined as 6.07 h in assay [2], 6.17 h in [3], 1.82 h in assay [4] and 19.2 h in assay [5].
